system: Saccharomyces cerevisiae; test: transcriptional activation domain activity (GFP:mCherry ratio, weighted mean of sorted bins, harmonized to initial dataset scale) (arbitrary fluorescence ratio units); higher = stronger transcriptional activation; settings: beta-estradiol 1 µM; induction time 4 h
Method in brief: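 The listed activation activity is a read-weighted mean of bin median fluorescence, averaged across barcodes and linearly mapped onto the initial dataset scale. Barcoded tiles, fused to an estradiol-inducible synthetic transcription factor, were integrated at URA3 in yeast diploids bearing a GFP reporter. Cells were held 4 hours at 30 °C in SC with 1 uM beta-estradiol, sorted into 8 GFP:mCherry bins, and sequenced, and tiles with fewer than 50 reads were excluded.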

Going from “MPAIFFGSQIGGETLQPLSYTGLPWKLLIQDILLFLRWCYYLPNIVIPLWPWP” to “MLQRFWYLALLAKRRTDLFSFKLSCLELLCFLPISMVVCHIWVIMGPLFFILF”, the “transcriptional activation domain activity” value falls from 67400 to 50800.

Compared with “MPGGWVFLMSIAFYYFILLFFLLLPMIYGFLFVCLFGVGTCFVICTFGFFPFF”, “REYNRMLRFYGVQDHQVKNTRLSVKEAFMLIIYRCVEVFCLFILSLPMIVLAS” is lower in “transcriptional activation domain activity” value: 62400 for the first, 58200 for the second.

Compared with “IVFLLRVLIRCLPTLTQILDFELVSAELSLAELPDTQFKLKELGVSTKVVFTQ”, “VAAVSRGEKERHRDRDREKKPSRSKPEKSSRRVVEKEEKTSSKGSASDKADKT” is lower in “transcriptional activation domain activity” value: 45800 for the first, 39700 for the second.

Going from “TEVQNYPHALDLITDNLDDDFQDELRGSLDVQARLLYGLIHARWIVTARGLSK” to “MQAGIHNVLFHFRNKWWIQIIGSGLPYFVLLAGRGLMCIFLFLIFRLRRCLCV”, the “transcriptional activation domain activity” value rises from 40200 to 67300.

Going from “MVPFSYVWEFYFFLMSMGGLGFHIFGLGHIFLFTSHIISFFIIGYWCCLICTK” to “KTTGPDARISHTSVQRFASYLGLRVALDRLRLQLAAATTIRHFISRLSRVLVF”, the “transcriptional activation domain activity” value falls from 57200 to 50600.

Compared with “GGLCAANFVAILITASVNIWTLLGNVYYSPLVNRCVCVARPEWMWTIWIFPLL”, “MATFLSCLRPFVCSFFLFSFLFRPWPWVYIHVGFGGNSCSTFDFLSIFFVTFF” is lower in “transcriptional activation domain activity” value: 46700 for the first, 43300 for the second.

Going from “NLSPLVLPLWVQLNIYFGIVFLWILAPLVFYYNVWNAQSFPFLSNSIFQLLPN” to “SFIHSLLYAFLSFFPHLFISYFLSSFYYLSTHLFLSFFPFLVILFTSCYQNLS”, the “transcriptional activation domain activity” value falls from 64600 to 57700.

Compared with “VTCFGILCFLLSALYLCIGFDPFINQLLYCGVLWLFQGIYFVLFGMKVALHFQ”, “MWLVKCTYILYIYIFGKWKVREVLELTRVFFFFFSFFFFLFFFPFFFFFFFFF” is higher in “transcriptional activation domain activity” value: 36200 for the first, 59900 for the second.

Compared with “LYEHLDEDHRLLWSYLSRLGSYVFQPEIPDLTLYLSELKTVIRCFLNQLIKIS”, “LHGFDWSEEDDMSDGLPFLKTDPNNNGFFGDGSLLCILRSIGFKPENYTNSNV” is lower in “transcriptional activation domain activity” value: 56700 for the first, 50300 for the second.

Compared with “QESVYIEVISYIGLIFDWFWYYILMNLSVFIWLACMYYTIFLYGFLEAYFPEK”, “ADSDRHKKHKSSSSSSKSRHHDRDDDRDDNDKHSRRSHHKSSSSRHDRDRERG” is higher in “transcriptional activation domain activity” value: 33000 for the first, 46300 for the second.

Compared with “GNNKPRGNNQRGGARNVRNGAEAGDEEAPREQRDSRSSRGRGEGRGRGRGRGG”, “MWWALCFFFFLFIFVILGFVGLLVCWFVGWLAGTFVGFSGSWFSFWVAWVVWV” is higher in “transcriptional activation domain activity” value: 31700 for the first, 60500 for the second.

Going from “IRCAKGFKSTDETKIFKTGQGGMKGNMYVTLSWNRWGKLLWATRIITRDFNPV” to “TSTGRFAFRQHRDHTTIHEGSWVSAGPGYDVGNRMWLLSRVVINAVVLELSSL”, the “transcriptional activation domain activity” value falls from 46000 to 42400.

Going from “PVNYLRLTNIGVCDMDDGYDLACHLMLNEPDADSCALLRVLIHRLKECTNLNI” to “GAEGAGAPGGAPPQLKKPKKHHKKKHHKKHGHRGGKHKHGKKGKWGKKGKKGL”, the “transcriptional activation domain activity” value falls from 47100 to 15100.

Compared with “YFEIAGLTFFFYWYFYLLVGGIDCAWNKFVYVMVSHMSTMIVHVQITLSHFAM”, “RCKHSDCQELSPFASVFDLIDHYDHTHAFIPETLVKYSYIHLYKPSVWDLFEY” is higher in “transcriptional activation domain activity” value: 32700 for the first, 157000 for the second.

Going from “DAEYMCQYHGSLIGKHFKSLAQVMPFVIYGLVHEDVLHAWNIIGTLLVLLWHT” to “GSEDRRKSSRSRDRRERRSRSRDKSHRDRERERDKDRERRHRDHEPRHSHRDR”, the “transcriptional activation domain activity” value rises from 33500 to 43300.

Going from “LYFTCNERVGACPPSFEYIYDTFFASVTSQEFWRSLFDLEAFYMYLGWYAFCV” to “IKPEIMGLLEIHRSIAQDIGVSLLTELINPNVSIGKMLRNCITVFTLINTLRH”, the “transcriptional activation domain activity” value rises from 65600 to 77500.

Compared with “YREIPPEQLHGFPRIVDDINYNPVFLFDTFAAYTTLINYWMHMLILRSNTFLL”, “MAGIVTRVCLILCSPLFPLSLRNFIILHCVYLPLSNSWYISPPFLLYCLQTVY” is higher in “transcriptional activation domain activity” value: 53100 for the first, 62700 for the second.

Compared with “LVLKMILDRLAEPGDSLLNIDFSTLIHQFAKYLNKVPSNYVVLRIKIKICHLV”, “SERRSHNQRDPERRDRNSNQSKRRRVDDSDSESDRRNRRRRVEHSSRKSHRSR” is lower in “transcriptional activation domain activity” value: 61000 for the first, 43800 for the second.

Compared with “GLNPLRTTLMMSLNIIRSLFPAFRGYSQALIVDELQSLIASESFTWSRLLWLM”, “DDEDEEQEEEEEDVDPEVRRKEELRARMAKMSGGMGMAGMFGMMPMPGAGAPP” is lower in “transcriptional activation domain activity” value: 57900 for the first, 41500 for the second.

Going from “EAEARGSGGGGERQRDCERQREPRATRAGGDAGARDGAGARGLARGAAGVAAM” to “SMRAPLFTELGLLPLRFRRLILALRYLSYLITLPHEHYASAALQDAFDLYSQG”, the “transcriptional activation domain activity” value falls from 51700 to 24100.

Going from “NELAVLVDGLNRVLLTHKDDIGIISHVMLAYMIAATRFKRLFVSGGGYMLFMP” to “SVVKFIEEYQAYFNTSYEVFLLLYISFILVTTLWCTSLIIYRILTVHLIEVLV”, the “transcriptional activation domain activity” value falls from 45800 to 29800.

Going from “MLPRLFFVAFATIPSPSSPLPPLPFLSSLAFFFSFFPHLISFLFVFFSFHTFF” to “FLMVLCLFCIVYLFFSCFPFFAMSYVLLLLFCFYCILFYFSCPFCFVICNSVV”, the “transcriptional activation domain activity” value rises from 51400 to 54000.

First: KISAEYMVQYKGGLIGKHFKSLSQIMAFVVYDLVPKDILDAWTIIGRLVVLLW
Second: LFHSVVSIYRLLFFFSVDHSAGVRFFFCFLFLPSLIFCIAFPISIISGFLVFF
The “transcriptional activation domain activity” value of the first is higher: 75900 for the first, 49600 for the second.

First: MYYILMFLIYTCQLLLLLINLHWLAVACDTFPSWPLMQTNFYFCLLLLVTLFR
Second: PSRTSCATPSPTSSTSAVPSARSSTGPRSRSRSRTASTSSTRASAAPSCSCAR
The “transcriptional activation domain activity” value of the first is higher: 31900 for the first, 10500 for the second.

Going from “MLTEVLEYCYVHGKKAYVLFNILQHVLDCHDYISFTHQLVLVMKYAKYQYVIA” to “EEEAELAKPAKRPRESDATERDASTGDEVSKKKSKKLKAENGAPVAAPAGTSG”, the “transcriptional activation domain activity” value falls from 55100 to 39300.

Going from “TAANGKKSKGNKGGNAAGANANANAKANGNTKNGNGNSRNGNNKRMRALGSAM” to “MFKCRNRYCYGSCVDLLCYLILGLDFLWIFCFLFFKRFFFRFLLSIPFSFFPS”, the “transcriptional activation domain activity” value rises from 25700 to 64600.

Going from “GASVDIHVTYQSSVKEGDEVEIEGIAEKVGGSLAFTKVNIFRVEDGERGRPVA” to “YIAPCGTWTPYMNLFLGSTVCIFIGFDVFAPFSYRGLITNYFGLLWFCFMFLF”, the “transcriptional activation domain activity” value rises from 36800 to 78400.

First: ELYIYSTVRYSFSDYLIPSGYNVCAFLLSCLMFNGDLMVELVLVMRSWFKRIL
Second: MIIIDIFLSIYMILSYLYLHLFIFHVHMNPSYFIYFLAFSVKEIFIVSWFFFI
The “transcriptional activation domain activity” value of the first is higher: 66500 for the first, 57300 for the second.

First: TRVMAEENGMTVDEKAFEEAQEAAKEASRKARGGKGGEEAVALDVHDLAALEK
Second: YVAPGVASPIPVNYIWTPFASWRLVAILISLLSLYSWGMLIFFFWFLFWLLLY
The “transcriptional activation domain activity” value of the first is higher: 36200 for the first, under 6570 for the second.

Going from “RKEGGGHGSSSRRDRDRDRDRSDRHRSSKKSSSSNNHDADGTAAAAADASGVH” to “NPSSAPAQTATTAASGTPSLFGSKPAQATGAPSSLFGGQPAAASTGASTQATP”, the “transcriptional activation domain activity” value rises from 18200 to 24200.

First: AQSSPVRASPHPADSPSKPAAKPVSKPATAAPPAASKPTTAAAPKAAAAKPVS
Second: GIYAFGKMYFIPYLLSNHWVVMLTYLQHSDPTIPVYRRGQWSFVRGALSTIDR
The “transcriptional activation domain activity” value of the first is lower: 27200 for the first, 41800 for the second.

Going from “KAVFKALPILVVASVGCASTNLLIRTVIIWRKEHLVISVLLLLYVGHWTILFV” to “MDKFRVLRLVLFRWWLFALCLIRFEVMEALLIHSPRFFEKLILVRTNLYLLCI”, the “transcriptional activation domain activity” value rises from 32100 to 50100.

First: NVLDASSVIARRAVETGGRNVPRGAAGGGAPRNRARGFELEIGNATLLGRRHN
Second: MRLEVFCPLANATSHAYLIFCIMHCLYFIRHFFCCRSLSTFYSSRLLLLFHFI
The “transcriptional activation domain activity” value of the first is lower: 29200 for the first, 80900 for the second.

Going from “MLHLAALSPLMLLVFLLFSLFFKFFATFIWLYIMAYILITTLIIVFRITLPAN” to “PNRRSMGKQDPYCAARLGKEAKKTATDRRGGQTPKWDQELRFTVHDSPDYHQL”, the “transcriptional activation domain activity” value falls from 68500 to 64200.

Compared with “MSSGFSWSTCSFFFFFFFFLLLLLLLFFWFFLFGLSWRDSLVFFPFFFFLSLF”, “IVVVVSPGVLHVDVGITILYGEVIVGLRTGTKDVLLRWKIVQVERRWLGYTPE” is higher in “transcriptional activation domain activity” value: 17800 for the first, 30500 for the second.

Going from “MALLSQVARLLGSFLCVAISCFGRLALLFLWLILAYFTFWSFFSGNLPICFCL” to “VKPEAKAEHIKENTKPKPLGTKRANKAAEAPAPAAKKPVKKAAVPKKAAAAPA”, the “transcriptional activation domain activity” value rises from 59300 to 59600.

Compared with “LLLLIWMVTRLVRTYTTIMFRCLGPPDHVAKMHRLLLGLSTCLQLSVYVLITS”, “RDDGDDDDGDDHDEEREDGGTRGEGRRRGEKGGREGEAARAEVHEASAEAEAG” is lower in “transcriptional activation domain activity” value: 47300 for the first, 16300 for the second.

Compared with “YKVPTASLKDGCLCVNVASEKNFEKDVREKASIYLPSVGKVTILMLLRNLLRL”, “IYVIGCQPRFKTKLVEDKAEKRKCRIVLVPIFSETGVLVLLNIRTLEVRTVRF” is lower in “transcriptional activation domain activity” value: 55000 for the first, 51700 for the second.

Compared with “MKLVRFLMKLNNETVTIELKNGSVIHGTITSVDPQMNTHLKSVKLSLRTAAPG”, “SAAAAAGTGAAAAATAGGKTGETQAAGAKKLKLSEEGKGKEKAAAAAAAEDQK” is lower in “transcriptional activation domain activity” value: 24700 for the first, 22100 for the second.

First: VIGGGATGSGVAVDAASRGLKVALVERDDFSSGTSSKSTKLVHGGVRYLQKAV
Second: SDASEGSKGRAREDPSDRAVVEYQGLSRFSSIPEKEKVWAYVVKIVKLLATTK
The “transcriptional activation domain activity” value of the first is higher: 69700 for the first, 34600 for the second.

Going from “MFYYIYLFSFFFIIVLPLPLSLCTFLHPLLLDCNFTLVAFFFCLLLFYVCHFF” to “LVVVLAVTKVMLLVLLIISYQILKQLLGIYFKCIHFLIYFFMLPYYGTLLSIL”, the “transcriptional activation domain activity” value rises from 28800 to 47500.

With “MLMDLALTLDDLTVRSLSVVGASVFMAFTYATLPATLGWGTWFLLSVWTLIFY” the “transcriptional activation domain activity” value was 64200.

Source: the supplement of paper PMC12636428
